Reference: PMC4275180

Legend:
Stat1 [1] = target: Stat1 (UniProt P42224); assay: FLAG co-IP, western blot; conditions: reference: wild type FLAG-KDM3A; sites S264
Stat1 [2] = target: Stat1 (UniProt P42224); assay: GST pull-down after in vitro kinase reaction; conditions: reference: His-KDM3A(1-394) not phosphorylated by MSK1; sites S264

Row | binding against the reference (Stat1 [1]) | binding against the reference (Stat1 [2]) | Substance
1 | lost | – | KDM3A (from UniProt Q9Y4C1) S264A
2 | – | gained | KDM3A 1-394 (from UniProt Q9Y4C1) His-KDM3A(1-394) phosphorylated by recombinant MSK1
